Measurements taken from PMC9242855, “Mechanism of replication origin melting nucleated by CMG helicase assembly” (Nature, 2022).
Values belong to the binder of their own block, whether it stands above or below them.

Experiments:
Experiment in all cases: cryo-EM structure; dCMGE assembled from purified yeast proteins on nucleosome-flanked (chromatinized) ARS1 origin DNA with 5 mM ATP; undiluted CMG assembly reaction frozen on grids; dimer map at limited resolution, symmetry-expanded CMGE at 3.5 Å
[1] = target: the molecule itself
[2] = target: T1, Mcm4 (S. cerevisiae, UniProt P30665 1-933); conditions: both partners purified
T1 construct: Mcm4, subunit of the yeast MCM (Mcm2–7) helicase; Subunit seen within the dCMGE structure; source: purified within Mcm2–7–Cdt1 on the basis of previously established protocols
T1 sequence: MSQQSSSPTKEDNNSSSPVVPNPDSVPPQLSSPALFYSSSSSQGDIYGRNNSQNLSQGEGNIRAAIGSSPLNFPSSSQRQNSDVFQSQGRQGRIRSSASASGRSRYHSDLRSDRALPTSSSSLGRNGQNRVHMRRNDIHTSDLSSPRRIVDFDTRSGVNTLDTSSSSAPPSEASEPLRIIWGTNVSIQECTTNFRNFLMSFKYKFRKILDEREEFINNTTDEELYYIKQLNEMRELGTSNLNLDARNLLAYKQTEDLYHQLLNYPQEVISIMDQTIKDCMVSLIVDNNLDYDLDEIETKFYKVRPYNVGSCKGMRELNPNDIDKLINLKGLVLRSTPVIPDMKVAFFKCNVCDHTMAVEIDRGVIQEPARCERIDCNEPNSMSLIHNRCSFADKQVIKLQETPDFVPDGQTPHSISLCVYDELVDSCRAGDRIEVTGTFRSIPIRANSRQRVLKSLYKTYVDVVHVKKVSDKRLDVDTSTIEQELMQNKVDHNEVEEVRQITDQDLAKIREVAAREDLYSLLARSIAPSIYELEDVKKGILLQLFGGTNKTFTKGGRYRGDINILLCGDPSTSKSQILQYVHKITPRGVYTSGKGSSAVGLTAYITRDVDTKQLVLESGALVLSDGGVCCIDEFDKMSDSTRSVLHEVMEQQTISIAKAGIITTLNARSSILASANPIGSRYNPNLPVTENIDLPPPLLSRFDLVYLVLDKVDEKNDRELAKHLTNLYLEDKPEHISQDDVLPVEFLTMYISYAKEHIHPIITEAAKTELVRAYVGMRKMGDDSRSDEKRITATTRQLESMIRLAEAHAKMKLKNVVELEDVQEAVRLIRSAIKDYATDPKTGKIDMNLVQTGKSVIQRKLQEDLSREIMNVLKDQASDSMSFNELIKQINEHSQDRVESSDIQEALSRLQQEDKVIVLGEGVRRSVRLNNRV

[3] = target: T2, Mcm3 (S. cerevisiae, UniProt P24279 1-971); conditions: both partners purified
T2 construct: Mcm3, subunit of the yeast MCM (Mcm2–7) helicase; Subunit seen within the dCMGE structure; source: purified within Mcm2–7–Cdt1 on the basis of previously established protocols
T2 sequence (P24279 whole entry): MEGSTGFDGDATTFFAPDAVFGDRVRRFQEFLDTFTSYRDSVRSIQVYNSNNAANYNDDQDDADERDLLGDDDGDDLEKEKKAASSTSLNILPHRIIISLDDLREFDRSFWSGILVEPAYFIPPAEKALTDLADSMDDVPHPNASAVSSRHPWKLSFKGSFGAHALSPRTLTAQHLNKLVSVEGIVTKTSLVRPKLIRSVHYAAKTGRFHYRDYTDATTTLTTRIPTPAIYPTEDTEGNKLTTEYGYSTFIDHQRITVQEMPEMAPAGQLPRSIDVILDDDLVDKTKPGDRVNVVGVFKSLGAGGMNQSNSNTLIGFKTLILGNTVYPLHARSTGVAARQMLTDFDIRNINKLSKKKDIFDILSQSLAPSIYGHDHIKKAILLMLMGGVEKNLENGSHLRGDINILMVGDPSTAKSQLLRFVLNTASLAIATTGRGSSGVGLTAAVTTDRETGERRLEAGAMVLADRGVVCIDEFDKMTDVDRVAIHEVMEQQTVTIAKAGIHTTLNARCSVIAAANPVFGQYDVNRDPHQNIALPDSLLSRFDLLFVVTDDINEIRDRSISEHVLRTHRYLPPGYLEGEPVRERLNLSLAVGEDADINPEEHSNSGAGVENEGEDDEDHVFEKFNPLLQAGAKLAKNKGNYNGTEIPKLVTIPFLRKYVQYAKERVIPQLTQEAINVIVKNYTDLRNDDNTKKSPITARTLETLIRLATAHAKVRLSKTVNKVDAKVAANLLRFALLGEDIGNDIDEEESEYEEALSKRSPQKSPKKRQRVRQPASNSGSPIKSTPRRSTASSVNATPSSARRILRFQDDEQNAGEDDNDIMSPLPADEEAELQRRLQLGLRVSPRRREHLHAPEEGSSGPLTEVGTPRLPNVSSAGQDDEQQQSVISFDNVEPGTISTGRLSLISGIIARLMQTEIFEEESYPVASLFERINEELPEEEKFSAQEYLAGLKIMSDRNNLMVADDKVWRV

B1: Mcm6 (natural protein, S. cerevisiae)
chain: MSSPFPADTPSSNRPSNSSPPPSSIGAGFGSSSGLDSQIGSRLHFPSSSQPHVSNSQTGPFVNDSTQFSSQRLQTDGSATNDMEGNEPARSFKSRALNHVKKVDDVTGEKVREAFEQFLEDFSVQSTDTGEVEKVYRAQIEFMKIYDLNTIYIDYQHLSMRENGALAMAISEQYYRFLPFLQKGLRRVVRKYAPELLNTSDSLKRSEGDEGQADEDEQQDDDMNGSSLPRDSGSSAAPGNGTSAMATRSITTSTSPEQTERVFQISFFNLPTVHRIRDIRSEKIGSLLSISGTVTRTSEVRPELYKASFTCDMCRAIVDNVEQSFKYTEPTFCPNPSCENRAFWTLNVTRSRFLDWQKVRIQENANEIPTGSMPRTLDVILRGDSVERAKPGDRCKFTGVEIVVPDVTQLGLPGVKPSSTLDTRGISKTTEGLNSGVTGLRSLGVRDLTYKISFLACHVISIGSNIGASSPDANSNNRETELQMAANLQANNVYQDNERDQEVFLNSLSSDEINELKEMVKDEHIYDKLVRSIAPAVFGHEAVKKGILLQMLGGVHKSTVEGIKLRGDINICVVGDPSTSKSQFLKYVVGFAPRSVYTSGKASSAAGLTAAVVRDEEGGDYTIEAGALMLADNGICCIDEFDKMDISDQVAIHEAMEQQTISIAKAGIHATLNARTSILAAANPVGGRYNRKLSLRGNLNMTAPIMSRFDLFFVILDDCNEKIDTELASHIVDLHMKRDEAIEPPFSAEQLRRYIKYARTFKPILTKEARSYLVEKYKELRKDDAQGFSRSSYRITVRQLESMIRLSEAIARANCVDEITPSFIAEAYDLLRQSIIRVDVDDVEMDEEFDNIESQSHAASGNNDDNDDGTGSGVITSEPPADIEEGQSEATARPGTSEKKKTTVTYDKYVSMMNMIVRKIAEVDREGAEELTAVDIVDWYLLQKENDLGSLAEYWEERRLAFKVIKRLVKDRILMEIHGTRHNLRDLENEENENNKTVYVIHPNCEVLDQLEPQDSS
notes: Mcm6, subunit of the yeast MCM (Mcm2–7) helicase; Subunit seen within the dCMGE structure; source: purified within Mcm2–7–Cdt1 on the basis of previously established protocols
binding result [1]: binds

binding result [2]: binds
binding result [3]: binds
B2: Mcm7 (natural protein, S. cerevisiae)
chain: MSAALPSIQLPVDYNNLFNEITDFLVTFKQDTLSSDATRNENEDENLDAENIEQHLLEKGPKYMAMLQKVANRELNSVIIDLDDILQYQNEKFLQGTQADDLVSAIQQNANHFTELFCRAIDNNMPLPTKEIDYKDDVLDVILNQRRLRNERMLSDRTNEIRSENLMDTTMDPPSSMNDALREVVEDETELFPPNLTRRYFLYFKPLSQNCARRYRKKAISSKPLSVRQIKGDFLGQLITVRGIITRVSDVKPAVEVIAYTCDQCGYEVFQEVNSRTFTPLSECTSEECSQNQTKGQLFMSTRASKFSAFQECKIQELSQQVPVGHIPRSLNIHVNGTLVRSLSPGDIVDVTGIFLPAPYTGFKALKAGLLTETYLEAQFVRQHKKKFASFSLTSDVEERVMELITSGDVYNRLAKSIAPEIYGNLDVKKALLLLLVGGVDKRVGDGMKIRGDINVCLMGDPGVAKSQLLKAICKISPRGVYTTGKGSSGVGLTAAVMKDPVTDEMILEGGALVLADNGICCIDEFDKMDESDRTAIHEVMEQQTISISKAGINTTLNARTSILAAANPLYGRYNPRLSPLDNINLPAALLSRFDILFLMLDIPSRDDDEKLAEHVTYVHMHNKQPDLDFTPVEPSKMREYIAYAKTKRPVMSEAVNDYVVQAYIRLRQDSKREMDSKFSFGQATPRTLLGIIRLSQALAKLRLADMVDIDDVEEALRLVRVSKESLYQETNKSKEDESPTTKIFTIIKKMLQETGKNTLSYENIVKTVRLRGFTMLQLSNCIQEYSYLNVWHLINEGNTLKFVDDGTMDTDQEDSLVSTPKLAPQTTASANVSAQDSDIDLQDA
notes: Mcm7, subunit of the yeast MCM (Mcm2–7) helicase; Subunit seen within the dCMGE structure; source: purified within Mcm2–7–Cdt1 on the basis of previously established protocols
